Source: patent publication US20060241289A1
Values joined by “and” are separate entries in the source; they are usually repeats but may differ in a detail not shown here. Equal entries are not always repeated. Where two headings read alike, the source gives them in different places. Values belong to the binder of their own block, whether it stands above or below them.

Columns and labels:
[1] = target: TSH receptor coated onto plastic tubes (UniProt P16473); assay: TSHR coated tubes; 9D33 IgG 10 µg/mL; competitor 125I-9D33
[2] = target: TSH receptor coated onto plastic tubes (UniProt P16473); assay: TSHR coated tubes; 9D33 IgG 10 µg/mL; competitor 125I-hMAb TSHR1
[3] = target: TSH receptor coated onto plastic tubes (UniProt P16473); assay: TSHR coated tubes; 9D33 IgG 0.1 µg/mL; competitor 125I-TSH
[4] = target: TSH receptor coated onto plastic tubes (UniProt P16473); assay: TSHR coated tubes; 9D33 IgG 0.001 µg/mL; competitor 125I-9D33
[5] = target: TSH receptor coated onto plastic tubes (UniProt P16473); assay: TSHR coated tubes; 9D33 IgG 0.1 µg/mL; competitor 125I-hMAb TSHR1
[6] = target: TSH receptor coated onto plastic tubes (UniProt P16473); assay: TSHR coated tubes; 9D33 IgG 0.001 µg/mL; competitor 125I-TSH
[7] = target: TSH receptor coated onto plastic tubes (UniProt P16473); assay: TSHR coated tubes; 9D33 IgG 0.01 µg/mL; competitor 125I-hMAb TSHR1
[8] = target: TSH receptor coated onto plastic tubes (UniProt P16473); assay: TSHR coated tubes; 9D33 IgG 1 µg/mL; competitor 125I-9D33
[9] = target: TSH receptor coated onto plastic tubes (UniProt P16473); assay: TSHR coated tubes; 9D33 IgG 0.01 µg/mL; competitor 125I-TSH
[10] = target: TSH receptor coated onto plastic tubes (UniProt P16473); assay: TSHR coated tubes; 9D33 IgG 1 µg/mL; competitor 125I-hMAb TSHR1
[11] = target: TSH receptor coated onto plastic tubes (UniProt P16473); assay: TSHR coated tubes; 9D33 IgG 0.1 µg/mL; competitor 125I-9D33
[12] = target: TSH receptor coated onto plastic tubes (UniProt P16473); assay: TSHR coated tubes; 9D33 IgG 0.001 µg/mL; competitor 125I-hMAb TSHR1
[13] = target: TSH receptor coated onto plastic tubes (UniProt P16473); assay: TSHR coated tubes; 9D33 IgG 1 µg/mL; competitor 125I-TSH
[14] = target: TSH receptor coated onto plastic tubes (UniProt P16473); assay: TSHR coated tubes; 9D33 IgG 10 µg/mL; competitor 125I-TSH
[15] = target: TSH receptor coated onto plastic tubes (UniProt P16473); assay: 125I-9D33 binding to TSHR coated tubes in the pool of healthy blood donor sera
[16] = target: TSH receptor coated onto plastic tubes (UniProt P16473); assay: 125I-9D33 binding to TSHR coated tubes in the pool of healthy blood donor sera, no 90/672
[17] = target: TSH receptor coated onto plastic tubes (UniProt P16473); assay: TSHR coated tubes; 9D33 IgG 0.01 µg/mL; competitor 125I-9D33
[18] = target: human TSH receptor on CHO cells (human) (UniProt P16473); assay: cell-based or functional assay
[19] = target: human TSH receptor on CHO cells (human) (UniProt P16473); assay: cell-based or functional assay; remark: listed apart in the source

inhibition of 125I-9D33 binding [1]: 71%
inhibition of 125I-hMAb TSHR1 binding [2]: 56%
inhibition of 125I-TSH binding [3]: 34%
inhibition of 125I-9D33 binding [4]: 4%
inhibition of 125I-hMAb TSHR1 binding [5]: 21%
inhibition of 125I-TSH binding [6]: 0%
inhibition of 125I-hMAb TSHR1 binding [7]: 3%
inhibition of 125I-9D33 binding [8]: 64%
inhibition of 125I-TSH binding [9]: 17%
inhibition of 125I-hMAb TSHR1 binding [10]: 44%
inhibition of 125I-9D33 binding [11]: 35%
inhibition of 125I-hMAb TSHR1 binding [12]: 0%
inhibition of 125I-TSH binding [13]: 58%
inhibition of 125I-TSH binding [14]: 68%
125I-9D33 bound (% total counts added) [15]: 11%
125I-9D33 bound (% total counts added) [16]: 15%
inhibition of 125I-9D33 binding [17]: 9%
B1: 9D33 IgG (mouse monoclonal antibody to the TSHR) (antibody, V domains shown)
VH: DVQIQQPGTELVKPGASVRLSCKASGYTFTTYWMHWVKQRPGQGLEWIGEIDPSDSYTNYNQKFKGKATLTVDKSSSTAYMHLSSLTSEDSAVYYCSRNYGSGYYFDYWGQGTTLTVSS
VL: GVEMTQSPAIMSASPGEKVTMTCSASSSVSYMHWYQQKSGTSPKRWIYDTSKLASGVPARFSGSGSGTSYSLTISSMETEDAATYYCQQWSSNPWTFGGGTKLEIK

mean pmol cyclic AMP/cell well; 2B4 IgG 100 µg/mL alone (pmol/cell well) [18]: 0.331
mean pmol cyclic AMP/cell well; hMAb TSHR1 Fab 5 ng/mL plus 2B4 IgG 100 µg/mL (pmol/cell well) [18]: 2.94
pmol cyclic AMP/cell well; 2B4 IgG 100 µg/mL alone (pmol/cell well) [18]: 0.298 and 0.318 and 0.376
pmol cyclic AMP/cell well; hMAb TSHR1 Fab 5 ng/mL plus 2B4 IgG 100 µg/mL (pmol/cell well) [18]: 3.32 and 2.63 and 2.86
x basal stimulation; 2B4 IgG 100 µg/mL alone [18]: 0.46 x basal
x basal stimulation; hMAb TSHR1 Fab 5 ng/mL plus 2B4 IgG 100 µg/mL [18]: 4 x basal
mean pmol cyclic AMP/cell well; 2B4 IgG 100 µg/mL alone (pmol/cell well) [19]: 0.49
mean pmol cyclic AMP/cell well; pTSH 0.5 ng/mL plus 2B4 IgG 100 µg/mL (pmol/cell well) [19]: 0.78
pmol cyclic AMP/cell well; 2B4 IgG 100 µg/mL alone (pmol/cell well) [19]: 0.446 and 0.486 and 0.552
pmol cyclic AMP/cell well; pTSH 0.5 ng/mL plus 2B4 IgG 100 µg/mL (pmol/cell well) [19]: 0.878 and 0.71 and 0.742
x basal stimulation; 2B4 IgG 100 µg/mL alone [19]: 1.4 x basal
x basal stimulation; pTSH 0.5 ng/mL plus 2B4 IgG 100 µg/mL [19]: 2.3 x basal
B2: 2B4 IgG (mouse monoclonal antibody to the TSHR) (antibody, from another filing, V domains shown)
VH: DVQLQQSGTVLARPGASVRMSCKASGYSFTRYWIHWLKQRPGQGLEWIGAIFPGNRDTSYNQRFKGKAEVTAVTSASTAYLDLSSLTNEDSAVYYCTRWPYYGSIYVNFDYWGQGTTLTVSS
VL: DIVMTQSPLSLPVSLGDQASISCRTSQNLVHRNGNTYLHWYLQKPGQSPKLLIYKISNRFSGVPDRFSGSGSGTDFTLKISRVEAEDLGVYFCSQGTHVPPTFGGGTKLEIKR
